Measured values published in the nanobody polyreactivity screen of Harvey et al. (2022).

Test: yeast display, Sf9 membrane polyspecificity reagent, FACS + sequencing; frameworks hold sequencing errors
Procedure, shortened: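 Nanobodies from a synthetic yeast display library (Saccharomyces cerevisiae BJ5465), induced 36–48 hours with galactose, were stained 1 hour at 4 °C with 10% biotinylated, detergent-solubilized Sf9 membrane reagent, enriched on streptavidin microbeads, then FACS-sorted. Anti-HA (expression) and streptavidin (reagent binding) fluorescence set low and high (top ~1%) gates. Polyreactivity labels come from the gate of origin. Genes were colony-PCR amplified, MiSeq 2 × 250 sequenced and filtered by CDR length.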

Row | Sequence | polyreactivity (PSR sort gate)
1 | QVQLVESGGGLVLAGGILRLSCAASGSTFYAYAMGWYRQAPGKERELVAAIDSGGSTYYADSVKGRFTISRDNAKNTVYLQMNSLKPEDTAVYYCAVRHRYTRAYWGRDYWGQGSQVTVSS | low polyreactivity
2 | QVQLVESGGGLVQAGGSLRLSCAASGRTFPYYAMGWSRQAPGKERQLVAAISSSGGLTYYADSVKGRFTISRDNAKNTVYLQMNSLKPEDTAVYYFNVDAWYPYQGFLVGYYYWGQGTQVTVSS | low polyreactivity
3 | QVQLVESGGGLVQAGGSLRLSCAASGYIISYNTMGWYRPAPGKERELVASIRWGGGRTYYADSVKGRFTISRDNAKNTVYLQLNSLKPEDTAVYYCNVKSSRFLDVGRMEYWGQGTQVTVSS | high polyreactivity
4 | QLQLHESGGVQAGGSLRLSCAAGGYISRSDVMGWYRQAPGKERELVATINNGTITYYADSVKGRFNISRDNAKNTVYLQMNSLKREDTAVHYWAVVQSDCDSLYYWGQGTQVTVSS | low polyreactivity
5 | QVQLVESGGGLVQAGGSLRLSCAASGFIFGYYAMGWYRQAPGKERELVAAISSRGGSTYYADSVKGRFTISRDNAKNTVYLQMNSLIPEDTAVYYCAVRLVSFRHNFGQYDYWGQGTQLTVSS | high polyreactivity
6 | QVQLVESGGGLFQAGGSLRLSCAASGSTLYEYAMGWYRQAPGKERELVAAINWSGGSTYYADSVKGRFTISRDNAKNTVYLQMNSLKPEDTAVYYCNRVKTGSTYRRRYWSMGYWGQGTQVTVSS | high polyreactivity
7 | QVQLVESGGGLVQAGGSLRLSCAASGSIFGRNAMGWYRQAPGKEREFVATITSRGGRTYYADSVKGRFTISRDNAKNTVYLQMNSLKPEDTAVYYCAADTYISTLKKYRLGDYWGQGTQVTVSS | low polyreactivity
8 | QVQLVESGGGLVQAGGSLRLSCAASGGIFYTNAMGWYRQAPGKERELVAAIRKNGDSTNYADSVKGRFTISRDNAKYTVYLHMNSLKPEDTAVYYCNDELWPWAYDYWGQGTQVTVSS | low polyreactivity
9 | QVQLVESGGGLVQAGGSLRLSCAACGFTFTIYAMGWYRQAPGKERELVATISGRAGRTYYADSVKGRFTISRDNAKNTVYLQMNSLKPEDTAVYYCTAGQWRYPGLYYYWGQGTQVTVSS | high polyreactivity
10 | QVQLVESGGGLVQAGGSLRLSCAASGRIFWINAMGWYRQAPGKERELVATISSGSTSYADSVKGRFTISRDNAKNTVYLHLNSLKPEDTAVYYCAVSLRYTRSGAYYYWGQGTQVTVSS | low polyreactivity
11 | QVQLVESGGGLVQAGGSLRLSCAASGRTFGSNAMGWYRQAPGKERQLVAAITRRGGSTYYADSVKGRFTISRDNAKNTVYLQMNSLKPEDTAVYDCATDPVSTRGSDYWGQGTQVTVSS | low polyreactivity
12 | QVQLVESVGGLVQAGGSLRLSCPASGSIFKYNAMGWYRQSPGKERELVAAISSGGSTNYADSVKGRFTISRDNAKNTVYLQMNSLKPEDTAVYYCAKDRRRWYYTRDYWGQGTQVTVSS | low polyreactivity
13 | QVQLVESGGGLVQAGGSLRLSCAASGRTFNRNTMGWYRQAPGKERELVAGITKRGGSTYYADSVKGRFTISRDNAKNTVYLQMNSLKPEDTAVYYCNAATNGSPPDYDYWGQGTQVNVSS | high polyreactivity
14 | QVQLVESGGGLVQAGGSLRLSCAASGFIFTRYAMGWYRQAPGKERELVAVITSSGGTYYADSVKGRFTISRDNAKNTVYLQMNSLKPEDTAVYYCNAVLGYYTYDYWGQGTQVTVSS | high polyreactivity
15 | QVQLVESGGGLVQAGGSLRLSCAASGRIFSYNAMGWYRQAPGKERELDAAISWSTGSTFYADSVKGRFTISRDNAKNTVYLQMNSLKPEDTAVYYCAREYYYRRGFFLRGYWGQGTQVTVSS | high polyreactivity
16 | QVQRVESGGGLVQAGGSLRLRCAASGFTLGHYAMGWYRQAPGTERELVAVITSGSSTNYADSVKGRFTISRDNAKNTVYLQMNSLKPEDTAVIYCAAEHPYFIWLYYYWGQGTQVTVSS | low polyreactivity

Row | Sequence | polyreactivity (PSR sort gate)
17 | QVQLQESGGGLVQAGGSLRLSCAASGSIFQYGYMGWYRQAPGKEREFVAGIGGGTSNYADSVKGRFTISRDNAKNTVYLQMNSLKPEDTAVYYCNTDAGDYYGENYWGQGTQVTVSS | low polyreactivity
18 | QVQLVESVGGLVQAGGSLRLSCAASGSIYRSYTMGWYRQAPRKEREFVAAITKRGGSTYYADSVKGRFTISRDNAKNTVYLQMISLKPEDTAVYYCAAVAGHYYYFRELGYWGQGTQVTVSS | high polyreactivity
19 | QVQLVESGGGLLQAGGSLRLSCAASGSTVGINAMGWYRQAPGKERELVASITRRGGSTYYADSVKGRFTISRDNAKNTVYLQMNSLKPEDTAVYYCNKTYRYGTPLYDYWGQGSQVTVSS | high polyreactivity
20 | QVQLVESGGGLVQAGGSLRLSCAASGLTFSRYAMGWYRQAPGKERELVAAITSIGGSTYYADSVKGRFTISRDNAKNTVYLQMNSLKPEDTAVYYCRAFFRRDYWGQGTQVNVSS | high polyreactivity
21 | QVQHVESGGGLVQAGGSLRLSCAASGRTFDSYAMGWYRQAPGKERELVAAIYADSVKGRFTISRDNAKNTVYLQMNSLKPEDTAVYYCAAETYSGQTYLGEYDYWGQGTQVTVSS | low polyreactivity
22 | QVQLVESGGGLVQAGGSLRLSCAASGRILSLYAMGWYRPPPGKERELVAAIRWSGSRTYYADSVKGRFTISRDNAKNTVYLQMNSLKPEDTAVYYCNAWYRLLRSSDYYWGQGTQVTVSS | high polyreactivity
23 | QVQLVESGGGLVQAGGSLRLSCAASGSIFVWYAMGWYRQAPGRKELVAAISWSGGTTYYADSVKGRFTISRDNAKNTVYLQMNSLKPEDTAVYYCAARGAVQASFYYWGQGTQVTVSS | high polyreactivity
24 | QVQLVESGGGLVQAGGSLRLSCAASGFTFSLNTMGWYRQAPGKERELVAAINSGDSTYADSVKGRFTISRDNAKNTVYLQMNSLKPEDTAVYYCNADPDWWYPYNYWGLGTQVTVSS | low polyreactivity
25 | QVQQQVSGGGLVQAGGSLRLSCAASGYIFQNVPMGWNRQAPGKERDLVAGIDNGTSTNYADSVNGRFTISRDNAKNTVYLQMNSLKPEVTAVYYCAAAGQADDTLGYWGQGTLVTVSS | low polyreactivity
26 | QVQLVESGGGLVQAGGSLRLSCAASGRTFNVNVMGWSRQAPGKERELVAAIRYTGGSTYADSVKGRFTISRDNAKNTVYLQMNSLKPEDTAVYYCNADTFFPFDHGMDYWGQGTQVTVSS | low polyreactivity
27 | QVQLVESGGGLDQAGGSLRLSCPASGRTISRNTMGWYRPAPGKERELVAGITYGGDRTYYADSVKGRFTISRDNAKNTVYLQMNSLKPEDTAVYYCAAPWYWKGLRDYWGQGTQVTVSS | low polyreactivity
28 | QVQLVESGGGLVQAGGSLRLSCAASGRTFGRYAMGWYRQAPGKEREFVAAIRSHGVSTYYADSVKGRFTISRDNAKNTVYLQMNSLKPEDTAVYYCAKPSTSYYQRGDYWGQGTQVTVSS | high polyreactivity
29 | QVQLVESGGGLVQAGGSLRLSCAASGFTLKSYAMGWYRQAPGKERELVASISRRGGSTYYADSVKGRFTISRDNAKNTVYLQMNSLKPEDTAVYYCNADYVRFPGNAYDYWGQGTQVTVSS | high polyreactivity
30 | QVQLVESGGGLVQAGGSLRLSCAASGRTFGYYTMGWYRQAPGKERELVARINYIGSSTYYADSVKGRFTISRDNAKNTVYLHMNSLKPEDTAVYYSNADNARGRSGVRRYYWGQGTQVTVSS | high polyreactivity
31 | QVQLVESGGGLVQAGGSLRLSCAASGFTFVGYAMGWYRQAPGKESELVAAITSSGGSTYYADSVKGRFTISRDNAKNTVYLQMNSLKPEDTAVYYCAAPAPVLSTQKRFDSWGQGTQVTVSS | low polyreactivity
32 | QVQLVESGGGLVQAGGSLRLSCAASGSIFASYAMGWYRQAPGKERELVATITQSGGRTYYADSVKGRFTISRDNAKNTVYLQMNSLKPEDTAVYYCARRYWGGGYRMGYWGQGTQVTVSS | high polyreactivity
